B1: LATS1 (human cDNA, GenBank Accession No. NP-004681.1, Flag- or HA-tagged) (protein)
chain: MKRSEKPEGYRQMRPKTFPASNYTVSSRQMLQEIRESLRNLSKPSDAAKAEHNMSKMSTEDPRQVRNPPKFGTHHKALQEIRNSLLPFANETNSSRSTSEVNPQMLQDLQAAGFDEDMVIQALQKTNNRSIEAAIEFISKMSYQDPRREQMAAAAARPINASMKPGNVQQSVNRKQSWKGSKESLVPQRHGPPLGESVAYHSESPNSQTDVGRPLSGSGISAFVQAHPSNGQRVNPPPPPQVRSVTPPPPPRGQTPPPRGTTPPPPSWEPNSQTKRYSGNMEYVISRISPVPPGAWQEGYPPPPLNTSPMNPPNQGQRGISSVPVGRQPIIMQSSSKFNFPSGRPGMQNGTGQTDFMIHQNVVPAGTVNRQPPPPYPLTAANGQSPSALQTGGSAAPSSYTNGSIPQSMMVPNRNSHNMELYNISVPGLQTNWPQSSSAPAQSSPSSGHEIPTWQPNIPVRSNSFNNPLGNRASHSANSQPSATTVTAITPAPIQQPVKSMRVLKPELQTALAPTHPSWIPQPIQTVQPSPFPEGTASNVTVMPPVAEAPNYQGPPPPYPKHLLHQNPSVPPYESISKPSKEDQPSLPKEDESEKSYENVDSGDKEKKQITTSPITVRKNKKDEERRESRIQSYSPQAFKFFMEQHVENVLKSHQQRLHRKKQLENEMMRVGLSQDAQDQMRKMLCQKESNYIRLKRAKMDKSMFVKIKTLGIGAFGEVCLARKVDTKALYATKTLRKKDVLLRNQVAHVKAERDILAEADNEWVVRLYYSFQDKDNLYFVMDYIPGGDMMSLLIRMGIFPESLARFYIAELTCAVESVHKMGFIHRDIKPDNILIDRDGHIKLTDFGLCTGFRWTHDSKYYQSGDHPRQDSMDFSNEWGDPSSCRCGDRLKPLERRAARQHQRCLAHSLVGTPNYIAPEVLLRTGYTQLCDWWSVGVILFEMLVGQPPFLAQTPLETQMKVINWQTSLHIPPQAKLSPEASDLIIKLCRGPEDRLGKNGADEIKAHPFFKTIDFSSDLRQQSASYIPKITHPTDTSNFDPVDPDKLWSDDNEEENVNDTLNGWYKNGKHPEHAFYEFTFRRFFDDNGYPYNYPKPIEYEYINSQGSEQQSDEDDQNTGSEIKNRDLVYV
B2: LATS2 (human cDNA, GenBank Accession No. NP-055387.2, Flag- or HA-tagged) (protein)
chain: MRPKTFPATTYSGNSRQRLQEIREGLKQPSKSSVQGLPAGPNSDTSLDAKVLGSKDATRQQQQMRATPKFGPYQKALREIRYSLLPFANESGTSAAAEVNRQMLQELVNAGCDQEMAGRALKQTGSRSIEAALEYISKMGYLDPRNEQIVRVIKQTSPGKGLMPTPVTRRPSFEGTGDSFASYHQLSGTPYEGPSFGADGPTALEEMPRPYVDYLFPGVGPHGPGHQHQHPPKGYGASVEAAGAHFPLQGAHYGRPHLLVPGEPLGYGVQRSPSFQSKTPPETGGYASLPTKGQGGPPGAGLAFPPPAAGLYVPHPHHKQAGPAAHQLHVLGSRSQVFASDSPPQSLLTPSRNSLNVDLYELGSTSVQQWPAATLARRDSLQKPGLEAPPRAHVAFRPDCPVPSRTNSFNSHQPRPGPPGKAEPSLPAPNTVTAVTAAHILHPVKSVRVLRPEPQTAVGPSHPAWVPAPAPAPAPAPAPAAEGLDAKEEHALALGGAGAFPLDVEYGGPDRRCPPPPYPKHLLLRSKSEQYDLDSLCAGMEQSLRAGPNEPEGGDKSRKSAKGDKGGKDKKQIQTSPVPVRKNSRDEEKRESRIKSYSPYAFKFFMEQHVENVIKTYQQKVNRRLQLEQEMAKAGLCEAEQEQMRKILYQKESNYNRLKRAKMDKSMFVKIKTLGIGAFGEVCLACKVDTHALYAMKTLRKKDVLNRNQVAHVKAERDILAEADNEWVVKLYYSFQDKDSLYFVMDYIPGGDMMSLLIRMEVFPEHLARFYIAELTLAIESVHKMGFIHRDIKPDNILIDLDGHIKLTDFGLCTGFRWTHNSKYYQKGSHVRQDSMEPSDLWDDVSNCRCGDRLKTLEQRARKQHQRCLAHSLVGTPNYIAPEVLLRKGYTQLCDWWSVGVILFEMLVGQPPFLAPTPTETQLKVINWENTLHIPAQVKLSPEARDLITKLCCSADHRLGRNGADDLKAHPFFSAIDFSSDIRKQPAPYVPTISHPMDTSNFDPVDEESPWNDASEGSTKAWDTLTSPNNKHPEHAFYEFTFRRFFDDNGYPFRCPKPSGAEASQAESSDLESSDLVDQTEGCQPVYV

Experiments:
[1] = target: His-YAP-SA (recombinant hexahistidine-tagged YAP serine to alanine mutant, pET-15b)
[2] = target: YAP S127A mutant (human YAP, transfected, Flag- or HA-tagged)

Protein | in-vitro kinase assay, 32P-labeled YAP by autoradiography [1] | phosphorylation of YAP in co-transfected WW45-deficient keratinocytes (Western blot) [2]
B1 | markedly reduced levels of phosphorylation of YAP S127A mutant by LATS1/2 | 
B2 | markedly reduced levels of phosphorylation of YAP S127A mutant by LATS1/2 | only the S127A mutant was not phosphorylated by activated LATS2 in cells

From patent US20090312251
